Test results reported in US20230040065A1 (Janssen / Centocor, published 2023).

What was measured:
recombinant human TNFα [1] = target: T1, recombinant human TNFα (human, UniProt P01375 77-233, 125I label in the receptor binding assay); assay: cell-based or functional assay
recombinant human TNFα [2] = target: T1, recombinant human TNFα; assay: inhibition of 125I-TNFα binding to plate-coated p55-sf2, hybridoma supernatants
Procedure: (§1) 50:1 of p55-sf2 at 0.5:g/ml in PBS was added to Optiplates to coat the wells during a one-hour incubation at 37° C. Serial dilutions of the eight TNV cell supernatants were prepared in 96-well round-bottom plates using PBS/0.1% BSA as diluent. […] The mixture was preincubated for one hour at RT. The coated Optiplates were washed to remove unbound p55-sf2 and 50:1 of the ¹²⁵I-TNFα/cell supernatant mixture was transferred to the Optiplates. After 2 hrs at RT, Optiplates were washed three times with PBS-Tween. […] of Microscint-20 was added and the cpm bound determined using the TopCount gamma counter.
A simple binding assay was done to determine whether the eight TNV mAbs contained in hybridoma cell supernatant were capable of blocking TNFα binding to receptor. The concentrations of the TNV mAbs in their respective cell supernatants were first determined by standard ELISA analysis for human IgG.

recombinant human TNFα [3] = target: T1, recombinant human TNFα; assay: inhibition of 125I-TNFα (5 ng/ml) binding to plate-coated p55-sf2; hybridoma supernatant preincubated with 125I-TNFα, cpm bound counted
Procedure: Varying amounts of hybridoma cell supernatants containing known amounts of TNV mAb were preincubated with a fixed concentration (5 ng/ml) of ¹²⁵I-labeled TNFα. […] The amount of TNFα that bound to the p55 receptor in the presence of the mAbs was determined after washing away the unbound material and counting using a gamma counter. Although eight TNV mAb samples were tested in these experiments, for simplicity three of the mAbs that were shown by DNA sequence analyses to be identical to one of the other TNV mAbs (see Section 5.2.2) are not shown here. Each sample was tested in duplicate. The results shown are representative of two independent experiments.
as §1

T1 sequence (P01375 77-233 limits assumed): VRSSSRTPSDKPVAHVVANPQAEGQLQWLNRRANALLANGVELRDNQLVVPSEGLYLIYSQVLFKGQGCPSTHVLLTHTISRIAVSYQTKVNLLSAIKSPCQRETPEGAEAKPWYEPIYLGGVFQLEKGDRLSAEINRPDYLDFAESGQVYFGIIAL

B1: TNV148 (GenTNV148.26.12) (antibody, human IgG1, kappa, V domains shown)
VH: QVQLVESGGGVVQPGRSLRLSCAASGFIFSSYAMHWVRQAPGNGLEWVAFMSYDGSNKKYADSVKGRFTISRDNPKNTLYLQMNSLRAEDTAVYYCARDRGIAAGGNYYYYGMDVWGQGTTVTVSS
VL: EIVLTQSPATLSLSPGERATLSCRASQSVYSYLAWYQQKPGQAPRLLIYDASNRATGIPARFSGSGSGTDFTLTISSLEPEDFAVYYCQQRSNWPPFTFGPGTKVDIKR
notes: Hybridoma-derived fully human IgG1 kappa mAb (G1m(z)); also called C420A
neutralizing TNFα bioactivity (in vitro) (recombinant human TNFα [1]): 4 fold (against TNV14) | fold better at blocking TNF binding to p55-sf2, against TNV118 and TNV14 (recombinant human TNFα [2]): ~4 fold | IC50 (read off the curve) (recombinant human TNFα [3]): ~4 ng/mL

B2: TNV86 (GenTNV86.14.34) (antibody, human IgG1, kappa, V domains shown)
VH: QVQLVESGGGVVQPGRSLRLSCAASGFIFSSYAMHWVRQAPGNGLEWVAFMSYDGSNKKYADSVKGRFTISRDNPKNTLYLQMNSLRAEDTAVYYCARDRGIAAGGNYYYYGMDVWGQGTTVTVSS
VL: EIVLTQSPATLSLSPGERATLSCRASQSVYSYLAWYQQKPGQAPRLLIYDASNRATGIPARFSGSGSGTDFTLTISSLEPEDFAVYYCQQRSNWPPFTFGPGTKVDIKR
notes: Hybridoma-derived fully human IgG1 kappa mAb; also called C417A
fold better at blocking TNF binding to p55-sf2, against TNV118 and TNV14 (recombinant human TNFα [2]): ~4 fold
